Test results taken from PMC4767726, “Molecular Probing of the HPV-16 E6 Protein Alpha Helix Binding Groove with Small Molecule Inhibitors” (PLoS ONE, 2016).

How the values were obtained:
[1] = target: MBP-E6 F2V (human papillomavirus type 16); assay: bead-based binding assay on filter plates (alkaline phosphatase luminescence); MBP-E6 held on amylose beads at indicated concentrations or 0.67 uM; E6AP-BAP added at 50 nM, 1-3 h, room temperature; 400 mM NaCl, 50 mM Tris-HCl pH 6.8, 0.1% milk, 1 mM DTT; amylose bead control subtracted
[2] = target: E6AP-BAP (aa 371-440) fusion protein (UniProt Q05086)
[3] = target: T1, E6AP-BAP (aa 371-440) fusion protein (UniProt Q05086 371-440); assay: cell-based or functional assay
T1 sequence (looked up): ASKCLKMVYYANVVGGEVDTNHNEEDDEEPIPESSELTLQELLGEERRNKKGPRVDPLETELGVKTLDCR

E6AP-BAP (aa 371-440) fusion protein (from UniProt Q05086 371-440) (domain or fragment)
percent of the wild-type binding capacity (% of wild type) [1]: 70

MBP-E6 R55A (natural protein)
p53 in vitro degradation by purified MBP-E6 in rabbit reticulocyte lysate, 2 h; activity against wild type [2]: 50%

MBP-E6 R102A (natural protein)
p53-luciferase reporter level in C33A cells transfected with HPV-16 E6 expression vector (untagged, pLXSN), EC50 in ng of DNA [2]: 172 ng | p53 in vitro degradation, 3 h incubation, 0.25 and 1 uM MBP-E6 R102A; decrease of p53 [2]: 50%

B1: MBP-HPV-16 E6 (wild-type) (natural protein, human papillomavirus type 16, UniProt P03126 1-158, looked up)
chain: MHQKRTAMFQDPQERPRKLPQLCTELQTTIHDIILECVYCKQQLLRREVYDFAFRDLCIVYRDGNPYAVCDKCLKFYSKISEYRHYCYSLYGTTLEQQYNKPLCDLLIRCINCQKPLCPEEKQRHLDKKQRFHNIRGRWTGRCMSCCRSSRTRRETQL
p53-luciferase reporter level in C33A cells transfected with HPV-16 E6 expression vector (untagged, pLXSN), EC50 in ng of DNA [3]: 32 ng
